How the values were obtained:
[1] = substrate: NCCc1c[nH]cn1; details: Methanothermobacter thermautotrophicus
Description: Activity at archaea Methanobacterium thermoautotrophicum recombinant carbonic anhydrase

[2] = substrate: NCCc1c[nH]cn1; details: Saccharomyces cerevisiae
Description: Activity at Saccharomyces cerevisiae recombinant Nce103p

[3] = substrate: NCCc1c[nH]cn1; details: Nakaseomyces glabratus
Description: Activity at Candida glabrata recombinant carbonic anhydrase

B1: Carbonic anhydrase (Methanobacterium thermoautotrophicum), Q50565 (protein)
chain: MRFVSMIIKDILRENQDFRFRDLSDLKHSPKLCIITCMDSRLIDLLERALGIGRGDAKVIKNAGNIVDDGVIRSAAVAIYALGVNEIIIVGHTDCGMARLDEDLIVSRMRELGVEEEVIENFSIDVLNPVGDEEENVIEGVKRLKSSPLIPESIGVHGLIIDINTGRLKPLYLDED
**Q.** With B1 as the protein, how does the Km [1] read?
**A.** Its Km is 1.7 mM.

B2: Carbonic anhydrase (Saccharomyces cerevisiae S288c), P53615 (protein)
chain: MSATESSSIFTLSHNSNLQDILAANAKWASQMNNIQPTLFPDHNAKGQSPHTLFIGCSDSRYNENCLGVLPGEVFTWKNVANICHSEDLTLKATLEFAIICLKVNKVIICGHTDCGGIKTCLTNQREALPKVNCSHLYKYLDDIDTMYHEESQNLIHLKTQREKSHYLSHCNVKRQFNRIIENPTVQTAVQNGELQVYGLLYNVEDGLLQTVSTYTKVTPK
**Q.** With B2 as the protein, how does the Km [2] read?
**A.** The Km was 9.5 mM.

B3: Carbonic anhydrase (Candida glabrata CBS 138), Q6FTL6 (protein)
chain: MTKDTIFTLTGKCALDNILDANRQWAQAMHRSQPQLFPTNGQGQDPHTLFIGCSDSRYNEDCLGVLPGEIFTLKTVANICHTDDHSLLATLEFAILNLKVNRIILCGHTDCGGIKTCLLGRESIKESCPHLYEHLDDIEDLVESHESELNQLDNICSKSKLMSHRNVERQLQRLLQIPVVQDALRNSNQDHEFNIFGLVYNVDSGLVDVVREVYGNQQK
**Q.** With B3 as the protein, how does the Km [3] read?
**A.** Its Km is 7.9 mM.

Reference: ChEMBL document CHEMBL1154924, “Carbonic anhydrase activators: Activation of the beta-carbonic anhydrase from the pathogenic yeast Candida glabrata with amines and amino acids” (Bioorg Med Chem Lett, 2010)
